According to paper PMC3418412:

Key:
purified wild type Hsp90 = purified wild type Hsp90 (UniProt P07900)
purified Hsp90-Y313E = purified Hsp90-Y313E (UniProt P07900)

Kd (purified wild type Hsp90): 13 µM
Kd (purified Hsp90-Y313E): 3.7 µM
Substance: purified AHA1 protein (from UniProt O95433 1-338) (natural protein)
